Reference: US6204034A, “Leukotriene C4 synthase” (Merck Frosst Canada & Co., priority 1994, dated 2001)

Assays:
[1] = Longevity of LTA4 free acid in mock incubation mixtures under aqueous conditions; type: physicochemical; details: mock incubation mixtures with 0.05% (w/v) bovine serum albumin and potassium phosphate buffer
Description: Hydrolysis of LTA4 Methyl Ester--The methyl ester of leukotriene A4 was hydrolyzed to the free acid essentially as described by Carrier, D. J. et al., Prostaglandins Leukot. Essent. Fatty Acids, 34, 27-30 (1988). The hydrolysis was monitored by determination of LTA4 by reverse-phase HPLC at pH 10 (Wynalda, M. A. et al., Anal. Chem., 54, 1079-1082 (1982)) except that LTA4 and LTA4 -methyl ester were eluted by a gradient of 20 to 70% (v/v) acetonitrile in borate buffer instead of isocratically as described in Wynalda et al. LTA4 -methyl ester (1.0 mg in hexane) was dried under a stream of nitrogen and then dissolved in 4 mL of 0.25 M NaOH:acetone (2:8 v/v). Following incubation for 60 min. at 25° C., the hydrolysis mixture was portioned into aliquots that were stored at -80° C. (up to 1 month). Following this procedure, the recovery of LTA4 free acid was >95% as confirmed by analysis of the hydrolysis products by reverse-phase HPLC under alkaline conditions (Wynalda et al.).

LTC4 synthase [2] = target: T1, LTC4 synthase (Homo sapiens, UniProt Q16873); experiment: Measurement of LTC4 synthase activity (LTC4 formation from LTA4 and reduced glutathione, reverse-phase HPLC); type: biochemical; design: endogenous in cells; host or cells: THP-1 cells; some values from human lung tissue
T1 sequence (Q16873 1-150): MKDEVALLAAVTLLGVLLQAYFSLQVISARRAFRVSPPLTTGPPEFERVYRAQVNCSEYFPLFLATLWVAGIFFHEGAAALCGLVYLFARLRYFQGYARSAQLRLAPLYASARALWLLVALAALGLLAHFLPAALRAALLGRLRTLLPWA
Experimental: The mixtures were allowed to stand for a minimum of 30 min. at 4° C. (or overnight). […] The bulk of the resulting supernatant (250 μl) was then transferred to sample vials for reverse-phase HPLC of which 200 μl was injected for analysis.
Analysis of LTC4 Formation by Reverse-Phase HPLC--The reaction products formed in the incubation mixtures described above were resolved by isocratic reverse-phase HPLC on a Waters Associates Novapak C18 column (3.9×150 mm, 4μ particle size). The mobile phase was acetonitrile:methanol:water:acetic acid at 54:14:28:1 adjusted to pH 5.6 with 10 NaOH and was pumped at a flow rate of 1.0 mL/min. LTC4 was quantified by on-line measurement of the optical density at 280 nm. The LTC4 peak was identified by its retention time compared to a synthetic standard (normally 10 min.).

[3] = target: T2, THP-1 microsomal membrane protein (Homo sapiens, UniProt Q16873); experiment: Photoaffinity labelling of THP-1 cell membranes; type: binding; details: 20 pM ligand, 0.3 mg THP-1 microsomal membrane protein, SDS-gel autoradiography
T2 construct: 0.3 mg of THP-1 microsomal membrane protein; endogenous in cells; host or cells: THP-1 cells (microsomal membranes)
T2 sequence (Q16873 1-150): T1 sequence (Q16873 1-150)
Experimental: The mixtures were incubated in 1.5 mL microcentrifuge tubes for 30 min. at 25° C. then transferred to 35 mm diameter cluster plate wells for photolysis. The samples in cluster plates were cooled for 5 min. at 4° C. then illuminated from above with a 40W ultraviolet light source (Phillips, λmax =350 nm) at a distance of 5 cm for 2 min. at 4° C. The samples were then transferred back into 1.5 mL microcentrifuge tubes and the membranes were re-isolated by centrifugation for 15 min. at 200,000×g. The resulting pellets were dissociated in SDS-containing sample buffer, denatured at 95° C. for 5 min. and then the proteins were resolved by SDS-gel electrophoresis. Radioactive bands in the dried gels were visualized by autoradiography and quantified by laser densitometry.

LTC4 synthase [4] = target: T1, LTC4 synthase; details: LTC2-X-biotin:streptavidin-agarose column
[5] = substrate: N[C@@H](CCC(=O)N[C@@H](CS)C(=O)NCC(=O)O)C(=O)O; experiment: purified protein, by the assay type; details: 25.0 °C
[6] = substrate: CCCCCC=CCC=CC=CC=CC1OC1CCCC(=O)O; experiment: purified protein, by the assay type; type: biochemical, human; details: 25.0 °C
[7] = other: THP-1 cells LTC4 synthase
[8] = other: human monocytes LTC4 synthase
[9] = purification fractions from 2×10^11 THP-1 cells

CCCCCC=CCC=CC=CC=CC1OC1CCCC(=O)O (stereo not shown) [LTA4, leukotriene A4, reference compound]
half-life [1]: approximately 30 min. | Preferred substrate (LTC4 synthase [2]): LTA4 free acid >> LTA4 methyl ester

CCCCCC=CCC=CC=CC=CC1OC1CCCC(=O)OC (stereo not shown) [LTA4 methyl ester, methyl ester of leukotriene A4, reference compound]
Preferred substrate (LTC4 synthase [2]): LTA4 free acid >> LTA4 methyl ester

CCCCC/C=C\C\C=C/C=C/C=C/[C@@H](SC[C@H](NC(=O)CC[C@H](NC(=O)CCCCCNC(=O)c1cc([125I])c(N=[N+]=[N-])cc1O)C(=O)O)C(=O)NCC(=O)O)[C@@H](O)CCCC(=O)O [Azido^125 I LTC4]
photoaffinity radiolabelling of membrane polypeptide [3]: specifically radiolabelled a single membrane polypeptide

N[C@@H](CCC(=O)N[C@@H](CS)C(=O)NCC(=O)O)C(=O)O [GSH, Reduced glutathione, reference compound]
effect on LTC4 synthase binding to the affinity resin (LTC4 synthase [4]): inhibited LTC4 synthase binding to the affinity resin

[Cl-].[Na+] [NaCl]
effect on LTC4 synthase binding to the affinity resin (LTC4 synthase [4]): inhibited LTC4 synthase binding to the affinity resin

B1: LTC4 synthase (Homo sapiens) (protein)
chain: T1 sequence (Q16873 1-150)
notes: endogenous in cells; host or cells: THP-1 cells; some values from human lung tissue
Km [5, 7]: 1670 µM | Km [5, 8]: 1200 µM | Km [6, 7]: 9.89 µM | Km [6, 8]: 5.6 µM | Activity (LTC4 synthase [2]; [9]): 1.378 nmol · min^-1 .multid | Spec. Activity (LTC4 synthase [2]; [9]): 4135 nmol · min^-1 .multid | Rel. Spec. Activity (LTC4 synthase [2]; relative to specific activity in harvested cells set at 1.00): 27,384
